Measurements as given in the RNAGym collection of RNA variant scans (doi:10.1021/acssynbio.7b00057).

B1: Pistol ribozyme (parent)
chain: GGGUCGUUGUUCCAUAAUCGCGUGGAUAUGGCACGCAAGUUUCUACCGGGCACCGUAAAUGUCCGACUGGAGCCGUUCGGGCGGCUAUAAACAGACCUCAGGCCCGAAGCGUGGCGGCACCUGCCGCCGGUGGUAAAAAAGAUCGGAAGAGCACACGUCU

Variants of: B1
Experiment: aptazyme ON/OFF ratio, guanine; higher = stronger switching; co-transcriptional cleavage with and without guanine

In order of falling “aptazyme ON/OFF ratio” value:
1. U7A U8A C13U  1.69
2. G9U U10C U11A C12G C13A  1.48
3. G9A U10A U11G C12U  1.42
4. U7A U8A U11C C12A C13G  1.42
5. U7A U8G G9C U11G C12U C13G  1.41
6. G9A U11A C12G C13A  1.39
7. U7C U8G U10C U11G C13A  1.39
8. U7A G9C U10A  1.38
9. U8A G9U U11A C12A C13U  1.38
10. U8A G9C U10A  1.38
11. U7G U8A U11A C12U C13U  1.36
12. U7C U8G G9A C12U C13G  1.35
13. U7G G9C U10C U11G C12U C13U  1.34
14. U7G U8C U10G C12A  1.33
15. U7A U8G G9A U10A U11C C12A C13G  1.33
16. U7A U8G G9C U10A C12A C13U  1.32
17. U7A U8G U11G C12U  1.29
18. U7A U8A G9A U11G  1.29
19. U8A G9U U10G U11A C12G C13U  1.28
20. U7A U8G G9C U10G C12A  1.27
21. G9U U10C U11A C12G C13U  1.27
22. U7A G9U U10A U11A C12G  1.26
23. G9A U10A U11C C12U C13U  1.26
24. U8C U11A C12G  1.25
25. U7G U8G G9U U10C U11A C12G  1.25
26. U7C U10C U11C C12A C13A  1.25
27. U7G U8G U10G U11G C12A C13A  1.25
28. U7A G9A U11G C12G C13G  1.24
29. U7A U8A G9C U11G C12A C13U  1.23
30. U8C G9A C12G C13A  1.23
31. U8G G9C U10A C12A  1.23
32. U7A U8A G9U C12U C13U  1.22
33. U7G U8G U10C U11G C12A C13U  1.22
34. U8A G9U C12G C13A  1.21
35. U7G U8G G9A U10C U11A C13U  1.2
36. U8G G9U U10A U11A C13A  1.19
37. U7C U8A U11G C13U  1.19
38. U7G G9C U10G U11C C12A C13A  1.19
39. U7G U8C U10A U11A C13A  1.18
40. U7C U8A G9A U10A C12A C13G  1.18
41. U7A U8C G9C C12G C13U  1.18
42. U7G U8G U10C C13G  1.17
43. U7A G9A U10A U11G C12U C13A  1.17
44. U8C U11G C12U C13U  1.17
45. U7A U10G C12A  1.16
46. U7A U8G G9A U10A U11C C12A C13U  1.16
47. G9A U10C U11C C12G C13A  1.16
48. U7G U8A U11G C12G C13A  1.16
49. U7G U8G U10A C12G C13A  1.16
50. U7C U8G G9U U10G C12A  1.15
51. U8A G9A U10G U11C C12U C13U  1.15
52. U7A U8C U10A U11A C12A C13G  1.15
53. U7C G9U U11G C13U  1.15
54. U7C U8A G9U U10C C12A C13G  1.15
55. U7A U8G U10G U11A C12U C13U  1.15
56. U7C U8A U10A U11A  1.14
57. U8C G9U U10G U11G C12G C13A  1.14
58. U7C U8C G9C U10A U11G C12G  1.14
59. U7G U8A G9A U11G C12A C13G  1.13
60. U8G U10A U11C C12A C13A  1.13
61. U7A U8A U11A C12G C13G  1.13
62. U7C U8A G9C U10G U11G C12G C13G  1.13
63. U7G U10A C13G  1.12
64. U7G U8A U10G C12U C13U  1.12
65. U7C U8C U10G C12G C13A  1.11
66. U8C G9C U10G U11G C13G  1.11
67. U7A G9C U10G U11G C12A C13A  1.11
68. G9U C12A C13U  1.1
69. U7G U8A G9A U10C C13A  1.09
70. U7C U8C G9C U10G U11G C12U C13G  1.09
71. U7G U8A G9U U10A U11G C12G  1.08
72. U7A G9C U11A C12G C13G  1.08
73. U7C U8C G9U U10G U11G C12U C13A  1.08
74. G9U U10A U11A C12U C13U  1.08
75. U7C G9A U10A U11G C13A  1.07
76. U7G G9A U10G U11A C12G  1.07
77. U8G G9U U10G U11G C12G C13A  1.07
78. U7C U8A G9A U10A U11C C12U C13G  1.06
79. U7C U8G G9U C13G  1.06
80. U8G G9U U11C C12G C13G  1.06
81. U7C U8A G9A U11C C13U  1.05
82. G9U U10A U11C C13G  1.04
83. U7A U10A U11C C12U C13U  1.04
84. U7C U8G G9A U10C U11C C12G  1.03
